Assay results as given in paper doi:10.1101/2025.04.08.647777 (bioRxiv, 2025).

Biological target: MBP-DIC1 (UniProt O14576 1-645)
Test: pull-down

Sequence of MBP-DIC1 (O14576 whole entry): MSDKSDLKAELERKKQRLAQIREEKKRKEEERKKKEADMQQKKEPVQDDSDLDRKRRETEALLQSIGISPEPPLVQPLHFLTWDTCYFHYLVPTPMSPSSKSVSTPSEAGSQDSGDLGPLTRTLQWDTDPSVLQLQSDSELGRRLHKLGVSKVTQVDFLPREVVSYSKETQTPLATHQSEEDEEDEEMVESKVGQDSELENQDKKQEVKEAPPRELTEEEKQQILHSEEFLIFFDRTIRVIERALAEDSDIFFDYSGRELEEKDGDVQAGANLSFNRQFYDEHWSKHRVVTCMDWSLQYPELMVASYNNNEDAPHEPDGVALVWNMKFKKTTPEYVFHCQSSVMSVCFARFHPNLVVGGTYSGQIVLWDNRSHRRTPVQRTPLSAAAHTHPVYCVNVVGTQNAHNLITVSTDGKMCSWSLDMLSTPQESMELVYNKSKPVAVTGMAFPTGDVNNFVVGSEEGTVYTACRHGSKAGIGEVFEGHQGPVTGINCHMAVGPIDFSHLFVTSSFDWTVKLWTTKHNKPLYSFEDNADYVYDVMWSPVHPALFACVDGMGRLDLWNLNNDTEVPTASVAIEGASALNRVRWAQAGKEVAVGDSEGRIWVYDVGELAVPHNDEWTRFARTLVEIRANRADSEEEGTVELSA

B1: GST-CSN7A (natural protein)
chain: MSAEVKVTGQNQEQFLLLAKSAKGAALATLIHQVLEAPGVYVFGELLDMPNVRELAESDFASTFRLLTVFAYGTYADYLAEARNLPPLTEAQKNKLRHLSVVTLAAKVKCIPYAVLLEALALRNVRQLEDLVIEAVYADVLRGSLDQRNQRLEVDYSIGRDIQRQDLSAIARTLQEWCVGCEVVLSGIEEQVSRANQHKEQQLGLKQQIESEVANLKKTIKVTTAAAAAATSQDPEQHLTELREPAPGTNQRQPSKKASKGKGLRGSAKIWSKSN
binding result: binds
